Settings: Canavalia ensiformis, pH 7, Fluorescence, HEPES 25 mM, CaCl2 15 mM, reversible: yes, whole UniProt chain shown; for denaturant m value: GdnHCl

B1: Concanavalin-A wild type, P02866 (protein)
chain: MAISKKSSLFLPIFTFITMFLMVVNKVSSSTHETNALHFMFNQFSKDQKDLILQGDATTGTDGNLELTRVSSNGSPQGSSVGRALFYAPVHIWESSAVVASFEATFTFLIKSPDSHPADGIAFFISNIDSSIPSGSTGRLLGLFPDANVIRNSTTIDFNAAYNADTIVAVELDTYPNTDIGDPSYPHIGIDIKSVRSKKTAKWNMQNGKVGTAHIIYNSVDKRLSAVVSYPNADSATVSYDVDLDNVLPEWVRVGLSASTGLYKETNTILSWSFTSKLKSNEIPDIATVV
In the case of B1, the denaturant m value (7 °C) is reported as 1.3 kcal/mol/M, the denaturant m value (12 °C) is reported as 1.6 kcal/mol/M and the denaturant m value (18 °C) is reported as 1.8 kcal/mol/M. For the same protein, the denaturant m value (27 °C) was 2.1 kcal/mol/M, the denaturant m value (30 °C) was 2.3 kcal/mol/M and the denaturant m value (39 °C) was 2.2 kcal/mol/M. For the same protein, the Tm (Thermal) was 98.5 °C, the “heat capacity change of unfolding” value (Thermal) was 4.2 kcal/mol/K and the “unfolding enthalpy (van 't Hoff)” value (Thermal) was 179 kcal/mol.
